Measured values: paper PMC10786919, “Design-rules for stapled peptides with in vivo activity and their application to Mdm2/X antagonists” (Nature Communications, 2024)

Target: human Mdm2 (1-125) (human)
Assay: fluorescence polarisation
Conditions: not given

Chain of human Mdm2 (1-125) (human) (Q00987 1-125): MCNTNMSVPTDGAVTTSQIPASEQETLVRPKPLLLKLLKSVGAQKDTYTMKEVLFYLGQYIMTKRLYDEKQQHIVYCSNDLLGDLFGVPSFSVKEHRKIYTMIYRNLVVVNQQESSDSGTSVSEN

Substance	Kd
azide-ATSP-7041 (MP-081) (peptide)	5 nM

Target: human Mdm2 1-125 (human)
Assay: fluorescence polarisation
Conditions: not given

Chain of human Mdm2 1-125 (human) (Q00987 1-125): as above

Substance	Kd
AZIDE-ATSP-7041 (A8 TO D-ALA) (peptide)	65.4 nM
AZIDE-ATSP-7041 (S12A) (peptide)	36.2 nM
AZIDE-ATSP-7041 (W7 TO 6-FLURO-1-TRP) (peptide)	1 nM

Target: human Mdm2 (1-125)
Assay: fluorescence anisotropy competition assay (FAM-12/1 tracer)
Conditions: tested in duplicate; parent MP-081 KD = 5 nM

Substance	ratio to parent
azide-ATSP-7041 (MP-081) A8E	< 2 x (within)
azide-ATSP-7041 (MP-081) A8W	< 2 x (within)
azide-ATSP-7041 (MP-081) A13a (a = D-alanine)	< 2 x (within)
azide-ATSP-7041 (MP-081) A14E	> 2 x stronger
azide-ATSP-7041 (MP-081) A14hR (hR = homo-arginine)	< 2 x (within)
azide-ATSP-7041 (MP-081) L1E	< 2 x (within)
azide-ATSP-7041 (MP-081) L1H	< 2 x (within)
azide-ATSP-7041 (MP-081) Q9H	< 2 x (within)
azide-ATSP-7041 (MP-081) Q9K	< 2 x (within)
azide-ATSP-7041 (MP-081) S12E	> 2 x stronger
azide-ATSP-7041 (MP-081) S12H	< 2 x (within)
azide-ATSP-7041 (MP-081) S12a (a = D-alanine)	< 2 x (within)
azide-ATSP-7041 (MP-081) S12hR (hR = homo-arginine)	< 2 x (within)
azide-ATSP-7041 (MP-081) T2K	< 2 x (within)
azide-ATSP-7041 (MP-081) T2hR (hR = homo-arginine)	< 2 x (within)
azide-ATSP-7041 (MP-081) W7(6F-1-W) (6F-1-W = 6-Fluoro-1-Trp)	> 2 x stronger
azide-ATSP-7041 (MP-081) W7(DC-F) (DC-F = 3,4-Dichloro-Phe)	< 2 x (within)
azide-ATSP-7041 (MP-081) W7(TFm-F) (TFm-F = trifluoromethyl-Phe)	> 2 x stronger

Target: human Mdm2 1-125 (human)
Assay: fluorescence polarisation; competitive fluorescence anisotropy: unlabelled peptide titrated against 250 nM Mdm2 (1-125) with 50 nM FAM-labelled 12/1 peptide (FAM-…-NH2); PBS pH 7.4, 0.001% Tween-20; apparent Kd, geometric means
Conditions: not given

Substance	Kd
AZIDE-ATSP-7041 (A8W) (peptide)	8.5 nM
AZIDE-ATSP-7041 (A14E) (peptide)	0.7 nM
AZIDE-ATSP-7041 (CBA10 TO A) (peptide)	115 nM
AZIDE-ATSP-7041 (E5 TO D-ALA) (peptide)	11.5 nM
AZIDE-ATSP-7041 (E5A) (peptide)	47.7 nM
AZIDE-ATSP-7041 (E5G) (peptide)	68.2 nM
AZIDE-ATSP-7041 (E5P) (peptide)	7840 nM
AZIDE-ATSP-7041 (E5W) (peptide)	98.5 nM
AZIDE-ATSP-7041 (L1 TO D-ALA) (peptide)	8 nM
AZIDE-ATSP-7041 (L1A, E5A, Q9A, S12A) (peptide)	53.9 nM
AZIDE-ATSP-7041 (L1D, E5D, A8D) (peptide)	5.2 nM
AZIDE-ATSP-7041 (L1G) (peptide)	9.5 nM
AZIDE-ATSP-7041 (L1P) (peptide)	22.6 nM
AZIDE-ATSP-7041 (L1R, A8R, A13R) (peptide)	9.1 nM
AZIDE-ATSP-7041 (L1R, Q9R, S12K) (peptide)	64.6 nM
AZIDE-ATSP-7041 (L1R, Y6F, L9R) (peptide)	117 nM
AZIDE-ATSP-7041 (L1W) (peptide)	16.5 nM
AZIDE-ATSP-7041 (L1Y, E5Y, A8Y) (peptide)	371 nM

Substance	Kd
AZIDE-ATSP-7041 (Q9 TO D-ALA) (peptide)	18.5 nM
AZIDE-ATSP-7041 (Q9A) (peptide)	54.3 nM
AZIDE-ATSP-7041 (Q9G) (peptide)	19.1 nM
AZIDE-ATSP-7041 (Q9P) (peptide)	45.8 nM
AZIDE-ATSP-7041 (Q9W) (peptide)	86 nM
AZIDE-ATSP-7041 (S12E) (peptide)	0.73 nM
AZIDE-ATSP-7041 (S12G) (peptide)	12.4 nM
AZIDE-ATSP-7041 (S12P) (peptide)	50.1 nM
AZIDE-ATSP-7041 (S12W) (peptide)	48 nM
AZIDE-ATSP-7041 (T2 TO D-ALA) (peptide)	70.5 nM
AZIDE-ATSP-7041 (T2V) (peptide)	71.5 nM
AZIDE-ATSP-7041 (T2W) (peptide)	204 nM
AZIDE-ATSP-7041 (W7 TO 3,4-DICHLORO-PHE) (peptide)	5.3 nM
AZIDE-ATSP-7041 (W7 TO TRIFLUOROMETHYL-PHE) (peptide)	1 nM
AZIDE-ATSP-7041 (Y6F) (peptide)	3.3 nM
AZIDE-ATSP-7041(A13E) (peptide)	14.2 nM
AZIDE-ATSP-7041(W7A) (peptide)	4600 nM
NH2-EEE-AZIDE-SGS-PM2-EEE (peptide)	2.4 nM

Target: human Mdm2 1-125 (human)
Assay: as above
Conditions: not given
Remark: another data set of the same source

Substance	Kd
AZIDE-ATSP-7041 (E5A) (peptide)	48.7 nM
AZIDE-ATSP-7041 (E5A,Q9A) (peptide)	38 nM
AZIDE-ATSP-7041 (E5A,S12A) (peptide)	30.9 nM
AZIDE-ATSP-7041 (E5L, A8L) (peptide)	36.2 nM
AZIDE-ATSP-7041 (L1A, E5A, Q9A) (peptide)	96 nM
AZIDE-ATSP-7041 (L1A,E5A) (peptide)	41.7 nM
AZIDE-ATSP-7041 (L1A,Q9A) (peptide)	21.1 nM
AZIDE-ATSP-7041 (L1A,S12A) (peptide)	16.1 nM
AZIDE-ATSP-7041 (L1A,T2A) (peptide)	26.5 nM
AZIDE-ATSP-7041 (Q9A,S12A) (peptide)	45.3 nM
AZIDE-ATSP-7041 (T2A,E5A) (peptide)	272 nM
AZIDE-ATSP-7041 (T2A,Q9A) (peptide)	79.5 nM
AZIDE-ATSP-7041 (T2A,S12A) (peptide)	37.1 nM
AZIDE-KK-ATSP-7041 (L1A,T2A,E5A,Q9A,S12A) (peptide)	156 nM

Target: human Mdm2 (1-125) (human)
Assay: fluorescence polarisation; competitive fluorescence anisotropy: 250 nM Mdm2 (1-125) with 50 nM FAM-labeled 12/1 peptide, competing peptide titrated; apparent Kd from the fit with Kd1 = […]; PBS pH 7.4, 0.001% Tween-20; geometric means
Conditions: not given

Substance	Kd
ALRN-6924 (Sulanemadlin, MP-4897) (peptide)	2.5 nM
azide-ATSP-7041 (E5P) (peptide)	7800 nM
azide-ATSP-7041 (L1D, E5D, A8D) (MP-495) (peptide)	5 nM
azide-ATSP-7041 (L1N, E5N, A8N, S12N, A13N, A14N) (MP-359) (peptide)	15 nM
azide-ATSP-7041 with Cba10 substituted by Ala (peptide)	115 nM
azide-ATSP-7041 with Cba10 substituted by Leu (peptide)	56 nM

Target: human Mdm2 (1-125) (human)
Assay: as above
Conditions: not given
Remark: another data set of the same source

Substance	Kd
ALRN-6924 (Sulanemadlin, MP-4897) (peptide)	2.46 nM
